According to paper PMC8516981:

What was measured:
[1] = target: α-synuclein (αS) fibrils (human) (UniProt P37840); test: microfluidic diffusional sizing; in solution; DnaJB1 or Apg2 alone with αS fibrils (concentrations as monomer equivalents); 50 mM HEPES-KOH pH 7.5, 50 mM KCl, 5 mM MgCl2, 2 mM DTT
[2] = target: α-synuclein (αS) fibrils (human) (UniProt P37840); test: microfluidic diffusional sizing; in solution; labelled Hsc70 with αS fibrils (concentrations as monomer equivalents); 50 mM HEPES-KOH pH 7.5, 50 mM KCl, 5 mM MgCl2, 2 mM DTT; in the presence of ATP and DnaJB1
[3] = target: α-synuclein (αS) fibrils (human) (UniProt P37840); test: microfluidic diffusional sizing; in solution; labelled Hsc70 with αS fibrils (concentrations as monomer equivalents); 50 mM HEPES-KOH pH 7.5, 50 mM KCl, 5 mM MgCl2, 2 mM DTT; in the presence of ATP

Sequence of heat shock cognate Hsc70 (HSPA8) (P11142 whole entry): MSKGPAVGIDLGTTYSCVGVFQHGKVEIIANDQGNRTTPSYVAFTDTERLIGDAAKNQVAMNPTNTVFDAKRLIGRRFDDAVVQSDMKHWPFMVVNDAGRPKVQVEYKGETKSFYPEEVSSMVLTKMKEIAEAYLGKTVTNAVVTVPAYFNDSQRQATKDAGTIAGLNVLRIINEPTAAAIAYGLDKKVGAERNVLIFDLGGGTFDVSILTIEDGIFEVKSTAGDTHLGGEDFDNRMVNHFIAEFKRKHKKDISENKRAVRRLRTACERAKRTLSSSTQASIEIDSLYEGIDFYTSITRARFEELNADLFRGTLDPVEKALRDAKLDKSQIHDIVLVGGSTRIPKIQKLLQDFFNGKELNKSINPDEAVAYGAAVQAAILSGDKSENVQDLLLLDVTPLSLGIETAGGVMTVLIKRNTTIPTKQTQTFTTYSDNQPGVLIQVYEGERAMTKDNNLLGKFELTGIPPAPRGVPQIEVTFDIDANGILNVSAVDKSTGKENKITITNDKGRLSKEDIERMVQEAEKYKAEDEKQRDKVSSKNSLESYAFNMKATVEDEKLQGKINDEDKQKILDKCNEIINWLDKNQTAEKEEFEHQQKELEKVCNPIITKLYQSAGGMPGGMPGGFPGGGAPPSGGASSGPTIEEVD
Sequence of DnaJB1 (Hsp40 class B J-protein) (P25685 whole entry): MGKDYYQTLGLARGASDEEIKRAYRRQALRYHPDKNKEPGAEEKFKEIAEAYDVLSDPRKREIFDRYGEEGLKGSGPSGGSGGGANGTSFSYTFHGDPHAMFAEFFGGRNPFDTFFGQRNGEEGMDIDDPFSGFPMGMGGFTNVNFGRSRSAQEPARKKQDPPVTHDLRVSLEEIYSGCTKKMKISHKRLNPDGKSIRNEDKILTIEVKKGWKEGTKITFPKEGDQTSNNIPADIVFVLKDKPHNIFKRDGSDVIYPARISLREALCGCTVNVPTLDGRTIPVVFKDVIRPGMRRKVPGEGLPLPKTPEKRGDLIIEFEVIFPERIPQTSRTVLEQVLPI

Kd [1] [nM] | Kd [2] [nM] | Kd [3] [nM] | stoichiometry N (αS monomer units per Hsc70 molecule) [3] | Substance
246 | – | – | – | DnaJB1 (Hsp40 class B J-protein) (from UniProt P25685 1-340) (natural protein)
– | 47.5 | 139 | 5.3 | heat shock cognate Hsc70 (HSPA8) (from UniProt P11142 1-646) (natural protein)
